{
  "source": "paper PMC11208152",
  "about": "“Dynamic Arabidopsis P5CS filament facilitates substrate channelling” (Nature Plants, 2024)",
  "proteins": {"B1": {"name": "Arabidopsis thaliana delta-1-pyrroline-5-carboxylate synthase 2 (AtP5CS2), wild type (enzyme, UniProt P54888 1-726, looked up)", "chain": "MTEIDRSRAFAKDVKRIVVKVGTAVVTGKGGRLALGRLGAICEQLAELNSDGFEVILVSSGAVGLGRQRLRYRQLVNSSFADLQKPQMELDGKACAGVGQSSLMAYYETMFDQLDVTVAQMLVTDSSFRDKDFRKQLSETVKAMLRMRVIPVFNENDAISTRRAPYKDSTGIFWDNDSLAALLSLELKADLLILLSDVEGLYTGPPSDSTSKLIHTFIKEKHQDEITFGEKSKLGRGGMTAKVKAAVNAAYGGVPVIITSGYAAENISKVLRGLRVGTLFHQDAHLWAPVVDTTSRDMAVAARESSRKLQALSSEDRKQILHDIANALEVNEKTIKAENDLDVAAAQEAGYEESLVARLVMKPGKISSLAASVRQLAEMEDPIGRVLKKTQVADDLILEKTSSPIGVLLIVFESRPDALVQIASLAIRSGNGLLLKGGKEARRSNAILHKVITDAIPETVGGKLIGLVTSREEIPDLLKLDDVIDLVIPRGSNKLVSQIKNSTKIPVLGHADGICHVYVDKSGKLDMAKRIVSDAKLDYPAACNAMETLLVHKDLEQNGFLDDLIYVLQTKGVTLYGGPRASAKLNIPETKSFHHEYSSKACTVEIVEDVYGAIDHIHQHGSAHTDCIVTEDSEVAEIFLRQVDSAAVFHNASTRFSDGFRFGLGAEVGISTSRIHARGPVGVEGLLTTRWIMRGKGQVVDGDNGIVYTHKDLPVLQRTEAVENGI", "notes": "Delta-1-pyrroline-5-carboxylate synthase 2 (P5CS2) of Arabidopsis thaliana; In the filament the helical unit is a tetramer (GK tetramer core, two GPR dimers); Only the GK tetramer was modelled at high resolution; also called AtP5CS2-WT; WT AtP5CS2; source: E. coli Rosetta (DE3), purified (Ni-NTA, SUMO-tag removed with yeast ULP1, Superose 6 Increase SEC); not shown: His6, N-terminal, cleaved; …"}, "B2": {"name": "Arabidopsis thaliana delta-1-pyrroline-5-carboxylate synthase 1 (AtP5CS1) (enzyme, UniProt P54887 1-717, looked up)", "chain": "MEELDRSRAFARDVKRIVVKVGTAVVTGKGGRLALGRLGALCEQLAELNSDGFEVILVSSGAVGLGRQRLRYRQLVNSSFADLQKPQTELDGKACAGVGQSSLMAYYETMFDQLDVTAAQLLVNDSSFRDKDFRKQLNETVKSMLDLRVIPIFNENDAISTRRAPYQDSSGIFWDNDSLAALLALELKADLLILLSDVEGLYTGPPSDPNSKLIHTFVKEKHQDEITFGDKSRLGRGGMTAKVKAAVNAAYAGIPVIITSGYSAENIDKVLRGLRVGTLFHQDARLWAPITDSNARDMAVAARESSRKLQALSSEDRKKILLDIADALEANVTTIKAENELDVASAQEAGLEESMVARLVMTPGKISSLAASVRKLADMEDPIGRVLKKTEVADGLVLEKTSSPLGVLLIVFESRPDALVQIASLAIRSGNGLLLKGGKEARRSNAILHKVITDAIPETVGGKLIGLVTSREEIPDLLKLDDVIDLVIPRGSNKLVTQIKNTTKIPVLGHADGICHVYVDKACDTDMAKRIVSDAKLDYPAACNAMETLLVHKDLEQNAVLNELIFALQSNGVTLYGGPRASKILNIPEARSFNHEYCAKACTVEVVEDVYGAIDHIHRHGSAHTDCIVTEDHEVAELFLRQVDSAAVFHNASTRFSDGFRFGLGAEVGVSTGRIHARGPVGVEGLLTTRWIMRGKGQVVDGDNGIVYTHQDIPIQA", "notes": "Delta-1-pyrroline-5-carboxylate synthase 1 (P5CS1) of Arabidopsis thaliana; also called His6-AtP5CS1; not shown: His6, N-terminal, kept"}, "B3": {"name": "AtP5CS2-GK, truncated AtP5CS2 consisting of residues 1-290 (glutamate kinase domain) (domain or fragment, Arabidopsis thaliana, UniProt P54888 1-290, looked up)", "chain": "MTEIDRSRAFAKDVKRIVVKVGTAVVTGKGGRLALGRLGAICEQLAELNSDGFEVILVSSGAVGLGRQRLRYRQLVNSSFADLQKPQMELDGKACAGVGQSSLMAYYETMFDQLDVTVAQMLVTDSSFRDKDFRKQLSETVKAMLRMRVIPVFNENDAISTRRAPYKDSTGIFWDNDSLAALLSLELKADLLILLSDVEGLYTGPPSDSTSKLIHTFIKEKHQDEITFGEKSKLGRGGMTAKVKAAVNAAYGGVPVIITSGYAAENISKVLRGLRVGTLFHQDAHLWAPV", "notes": "Delta-1-pyrroline-5-carboxylate synthase 2 (P5CS2) of Arabidopsis thaliana, residues 1-290, the glutamate kinase (GK) domain; probably made as His6-SUMO fusion in E. coli and cleaved with ULP1 like the full-length AtP5CS2 (surmised); also called AtP5CS2 GK domain"}},
  "key": {"[1]": {"target": "the molecule itself", "assay": "cryo-EM structure; mixed state: about 5 μM purified protein in reaction buffer with all substrates (25 mM Tris-HCl pH 8.0, 150 mM NaCl, 20 mM glutamate, 10 mM MgCl2, 5 mM ATP, 0.5 mM NADPH), on ice about 30 min (AtP5CS1) or 60 min (AtP5CS2); filament of tetrameric helical units, focus refinement on the GK tetramer"}, "[2]": {"target": "the molecule itself", "assay": "negative-staining EM; purified protein about 2-4 μM incubated at 25 °C with substrates (ATP, glutamate, both, or all substrates = mixed state) at the concentrations of the activity assay; step seen: oligomers (tetramers) into filaments"}},
  "data": [
    {"protein": "B1", "values": [
      {"measurement": "stoichiometry N", "setting": "[1]", "result": 4}
    ]},
    {"protein": "B2", "values": [
      {"measurement": "stoichiometry N", "setting": "[1]", "result": 4}
    ]},
    {"protein": "B3", "values": [
      {"measurement": "binding result", "setting": "[2]", "result": "binds"}
    ]}
  ]
}
